# Measured values as given in patent publication US20260209362A1 (VIB VZW, published 2026).
# T1: mouse IL-12Rβ2 (mouse, UniProt P97378 24-874)
# T1 construct: Expressed on HEK293T cells transiently transfected with a pcDNA3 plasmid (Genscript clone OMu01776); also called mIL-12RB2; NP_032380.1
# T1 sequence: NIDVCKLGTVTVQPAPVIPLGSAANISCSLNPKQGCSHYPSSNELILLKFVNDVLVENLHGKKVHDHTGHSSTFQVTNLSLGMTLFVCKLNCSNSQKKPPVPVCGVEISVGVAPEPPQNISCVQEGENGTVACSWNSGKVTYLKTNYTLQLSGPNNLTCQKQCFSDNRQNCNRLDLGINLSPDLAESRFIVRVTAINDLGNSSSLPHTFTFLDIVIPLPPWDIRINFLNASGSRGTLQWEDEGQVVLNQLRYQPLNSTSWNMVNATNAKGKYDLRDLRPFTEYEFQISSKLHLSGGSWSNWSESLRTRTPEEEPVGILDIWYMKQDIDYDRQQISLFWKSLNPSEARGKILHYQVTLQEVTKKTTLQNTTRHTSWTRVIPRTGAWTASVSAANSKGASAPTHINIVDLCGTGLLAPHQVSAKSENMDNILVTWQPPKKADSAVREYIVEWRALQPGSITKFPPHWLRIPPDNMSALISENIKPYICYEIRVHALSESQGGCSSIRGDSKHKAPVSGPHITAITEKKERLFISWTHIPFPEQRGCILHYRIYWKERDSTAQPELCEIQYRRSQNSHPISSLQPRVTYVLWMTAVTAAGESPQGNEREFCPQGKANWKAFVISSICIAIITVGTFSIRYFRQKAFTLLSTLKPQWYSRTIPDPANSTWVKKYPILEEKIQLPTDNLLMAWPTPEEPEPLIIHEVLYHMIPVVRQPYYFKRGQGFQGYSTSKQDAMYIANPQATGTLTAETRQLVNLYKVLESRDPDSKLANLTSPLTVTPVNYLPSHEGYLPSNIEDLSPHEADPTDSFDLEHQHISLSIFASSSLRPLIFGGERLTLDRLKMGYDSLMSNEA
# T2: human IL-12Rβ2 (human, UniProt Q99665 24-862)
# T2 construct: Expressed on HEK293T cells transiently transfected with a pcDNA3 plasmid (Genscript clone OHu21785); also called hIL-12RB2; IL-12 receptor β2 subunit
# T2 sequence: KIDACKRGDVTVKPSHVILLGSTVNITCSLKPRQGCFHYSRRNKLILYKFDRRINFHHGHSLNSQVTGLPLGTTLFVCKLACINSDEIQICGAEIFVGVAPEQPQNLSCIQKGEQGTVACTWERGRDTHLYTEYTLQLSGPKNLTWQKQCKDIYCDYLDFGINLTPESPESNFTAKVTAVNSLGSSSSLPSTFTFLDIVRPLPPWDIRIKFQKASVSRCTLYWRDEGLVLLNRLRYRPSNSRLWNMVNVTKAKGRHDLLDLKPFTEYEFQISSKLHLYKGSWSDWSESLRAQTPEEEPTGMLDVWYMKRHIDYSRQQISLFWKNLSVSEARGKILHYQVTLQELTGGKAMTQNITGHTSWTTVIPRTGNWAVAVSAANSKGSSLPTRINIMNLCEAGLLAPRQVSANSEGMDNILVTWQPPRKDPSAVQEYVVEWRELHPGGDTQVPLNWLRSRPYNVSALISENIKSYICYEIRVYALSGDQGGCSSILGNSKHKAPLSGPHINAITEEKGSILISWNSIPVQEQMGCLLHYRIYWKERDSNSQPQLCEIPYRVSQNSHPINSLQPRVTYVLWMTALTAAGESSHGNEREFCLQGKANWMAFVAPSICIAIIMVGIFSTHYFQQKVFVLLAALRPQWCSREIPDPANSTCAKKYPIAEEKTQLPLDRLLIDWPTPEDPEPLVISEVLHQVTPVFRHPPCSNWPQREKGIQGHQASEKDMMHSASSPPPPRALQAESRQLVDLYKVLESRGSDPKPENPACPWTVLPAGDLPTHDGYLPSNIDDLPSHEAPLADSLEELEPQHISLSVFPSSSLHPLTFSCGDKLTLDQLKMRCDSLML
# T3: biotinylated recombinant human IL-12Rβ2 (produced in-house) (human, UniProt Q99665 24-622, randomly biotinylated)
# T3 construct: also called hIL-12RB2; human IL-12RB2
# T3 sequence: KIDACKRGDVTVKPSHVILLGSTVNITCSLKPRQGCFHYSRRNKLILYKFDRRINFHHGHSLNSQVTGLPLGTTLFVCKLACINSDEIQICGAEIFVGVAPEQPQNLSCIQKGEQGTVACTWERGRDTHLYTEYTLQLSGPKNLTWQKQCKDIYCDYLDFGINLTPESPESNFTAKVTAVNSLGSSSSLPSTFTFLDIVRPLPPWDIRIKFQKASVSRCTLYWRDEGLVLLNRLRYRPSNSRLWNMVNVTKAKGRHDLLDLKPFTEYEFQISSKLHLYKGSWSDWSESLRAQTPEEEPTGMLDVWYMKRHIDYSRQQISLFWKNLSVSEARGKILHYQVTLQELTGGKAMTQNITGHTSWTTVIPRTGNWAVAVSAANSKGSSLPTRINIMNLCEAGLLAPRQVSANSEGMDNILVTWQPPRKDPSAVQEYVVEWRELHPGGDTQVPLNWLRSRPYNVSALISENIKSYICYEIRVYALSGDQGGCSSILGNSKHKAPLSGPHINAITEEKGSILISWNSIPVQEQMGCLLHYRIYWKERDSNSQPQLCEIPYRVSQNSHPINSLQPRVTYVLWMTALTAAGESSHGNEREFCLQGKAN
# T4: biotinylated recombinant mouse IL-12Rβ2 (produced in-house) (mouse, UniProt P97378 24-637, randomly biotinylated)
# T4 construct: also called mIL-12RB2; mouse IL-12RB2
# T4 sequence: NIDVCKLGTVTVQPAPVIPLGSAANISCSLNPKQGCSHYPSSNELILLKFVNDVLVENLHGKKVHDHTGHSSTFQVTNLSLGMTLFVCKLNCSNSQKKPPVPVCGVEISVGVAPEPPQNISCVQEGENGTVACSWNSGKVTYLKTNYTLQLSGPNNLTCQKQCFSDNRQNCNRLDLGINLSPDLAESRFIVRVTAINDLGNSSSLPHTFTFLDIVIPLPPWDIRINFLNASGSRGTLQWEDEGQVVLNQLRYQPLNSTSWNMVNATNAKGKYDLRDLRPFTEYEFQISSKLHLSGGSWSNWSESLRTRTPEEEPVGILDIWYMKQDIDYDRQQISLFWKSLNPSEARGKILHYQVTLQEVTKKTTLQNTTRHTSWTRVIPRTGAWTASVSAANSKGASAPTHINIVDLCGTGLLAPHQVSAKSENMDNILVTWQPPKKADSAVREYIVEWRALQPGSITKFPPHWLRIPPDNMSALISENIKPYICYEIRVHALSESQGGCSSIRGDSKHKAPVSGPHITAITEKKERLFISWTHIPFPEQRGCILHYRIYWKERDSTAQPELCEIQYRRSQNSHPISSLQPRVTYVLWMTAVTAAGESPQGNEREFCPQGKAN
# Assays:
# [1] = target: T1, mouse IL-12Rβ2; assay: flow cytometry, P.E. on transfected HEK293T cells
# [2] = target: T2, human IL-12Rβ2; assay: flow cytometry, P.E. on transfected HEK293T cells
# [3] = target: T3, biotinylated recombinant human IL-12Rβ2 …; assay: ELISA, periplasmic extract on biotinylated human IL-12Rβ2; control streptavidin-coated blocked wells
# [4] = target: T4, biotinylated recombinant mouse IL-12Rβ2 …; assay: ELISA, periplasmic extract on biotinylated mouse IL-12Rβ2; control streptavidin-coated blocked wells
binder,measurement,setting,value
"anti-IL-12Rβ2 VHH clone 3CRHM73 (VHH, not shown: small tags and cut ends, periplasmic extract; also called 21060) VHH: QVQLQESGGGLVQAGGSLSLSCAASGSAFRLNFMGWYRQAPGKQRELVAAINSGGTEIYHDSVKGRFTISRDNADSTVWLQMNSLKPDDTAVYYCAADRGISWSKLAGGMDYWGKGTQVTVSS",% cells bound,[1],10.4%
same,dMFI,[1],357
same,% cells bound,[2],19.5%
same,dMFI,[2],397
"anti-IL-12Rβ2 VHH clone 2CRM88 (VHH, Tested as periplasmic extract; CDR3 group 18; also called 20453) VHH: QVQLQESGGGLVQAGGSLRLSCQASGRTFSNYRMGWFRQAPGKEREFVAGINWDGGHTYYTDSVKGRFTISRDNAKNTVYLQMNSLKPEDTAVYQCAVRVREYGSSRYEDQFDYWGQGTQVTVSS",ELISA binding hIL-12RB2/control,[3],0.873 ratio to control
same,ELISA binding mIL-12RB2/control,[4],3.73 ratio to control
"anti-IL-12Rβ2 VHH clone 2CRM42 (VHH, Tested as periplasmic extract; CDR3 group 18; also called 20449) VHH: QVQLQESGGGLVQPGESLRLSCQASGRTFSNYRMGWFRQAPGKEREFVAGINWDGGHTYYTDSVKGRFTISRDNAKNTVYLQMNSLKPEDTAVYQCAVRVREYGSSRYEDQFDYWGQGTQVTVSS",ELISA binding hIL-12RB2/control,[3],0.942 ratio to control
same,ELISA binding mIL-12RB2/control,[4],6.09 ratio to control
"anti-IL-12Rβ2 VHH clone 2CRM16 (VHH, Tested as periplasmic extract; CDR3 group 18) VHH: QVQLQESGGGLVQAGGSLRLSCAASGRTFSNYRMGWFRQAPGKEREFVAGINWDGGHTYYTDSVKGRFTISRDNAKNTVYLQMNSLKPEDTAVYQCAVRVREYGSSRYEDQFDYWGQGTQVTVSS",ELISA binding hIL-12RB2/control,[3],0.947 ratio to control
same,ELISA binding mIL-12RB2/control,[4],4.12 ratio to control
"anti-IL-12Rβ2 VHH clone 3CRHM133 (VHH, not shown: small tags and cut ends, periplasmic extract; also called 21063) VHH: QVQLQESGGGSVQAGGSLRLSCAVSGRPVSDYAMGWFRQAPGKEREFVAALSASDTTVYPNSVKGRITISRDNAKNAVDLQMNALKPEDTAVYYCAMGPIGTFQGLARQNEYHYWGQGTQVTVSS",% cells bound,[1],0.59%
same,dMFI,[1],133
same,% cells bound,[2],33.7%
same,dMFI,[2],721
"anti-IL-12Rβ2 VHH clone 3CRHM240 (VHH, not shown: small tags and cut ends, periplasmic extract; also called 21065) VHH: QVQLQESGGGSVQAGGSLRLSCAVSGRTVSDYAMGWFRQAPGKEREFVVAMSSSETTVYTNSVKGRITISRDNAKNAVYLQMNALKPEDTAVYYCSMGPITTFQGLARQNEYHYWGQGTQVTVSS",% cells bound,[1],0.33%
same,dMFI,[1],43
same,% cells bound,[2],33.7%
same,dMFI,[2],635
"anti-IL-12Rβ2 VHH clone 3CAMS63 (VHH, Tested as periplasmic extract; CDR3 group 26; also called 20552) VHH: QVQLQESGGGLVQAGGSLRLSCAASGRTFSNYAMGWFRQAPGKEREFVAAINRSGTTLYVDSVKGRFTISRDNAKNTVALQMNSLKPEDTAVYYCVAGMPFSYSDYPRDSKYDYWGQGTQVTVSS",ELISA binding hIL-12RB2/control,[3],1.01 ratio to control
same,ELISA binding mIL-12RB2/control,[4],9.78 ratio to control
"anti-IL-12Rβ2 VHH clone 3CRM66 (VHH, Tested as periplasmic extract; CDR3 group 42; also called 20461) VHH: QVQLQESGGGLVQPGGSLRLSCAASGSTFSIHAMGWYRQAPGKKRELVARITRGGSTNYADSVKGRFTISVDNAKNTVYLQMNSLKPEDTAVYDCNAETGWGEWDDYWGQGTQVTVSS",ELISA binding hIL-12RB2/control,[3],1.38 ratio to control
"anti-IL-12Rβ2 VHH clone 2CRM40 (VHH, Tested as periplasmic extract; CDR3 group 24; also called 20448) VHH: QVQLQESGGGLVQTGGSLRLSCAASGRTYAMAWFRQAPGKEREFAAVIIGGDRTYYANSVKDRFTISRDNAKETVYLQMNNLKPEDTAVYYCAANRRLYNSGRGYSQSEYEYWGQGTQVTVSS",ELISA binding hIL-12RB2/control,[3],0.993 ratio to control
same,ELISA binding mIL-12RB2/control,[4],5.86 ratio to control
"anti-IL-12Rβ2 VHH clone 2CAM88 (VHH, Tested as periplasmic extract; CDR3 group 17) VHH: QVQLQESGGGLVPPGDSLRLSCAASGRTFSSYTMGWFRQAPGKEREFVARISQDGGSTYYADSMKGRFTVARDNAKNTVYLQMNSLKPEDTAVYYCAADMIKWGLRVGVDSFKYWGQGTQVTVSS",ELISA binding hIL-12RB2/control,[3],0.998 ratio to control
same,ELISA binding mIL-12RB2/control,[4],62.3 ratio to control
"anti-IL-12Rβ2 VHH clone 3CAM10 (VHH, Tested as periplasmic extract; CDR3 group 25; also called 20507) VHH: QVQLQESGGGLVQAGGSLRLSCAASGRTFSDYPMAWFRQAPGKEREFVAGISNGGTAYYADSVKGRFTISRDNTRNTVYLQMNRLKVEDTAVYYCAAVHLLSNLRGADPHEADYWGQGTQVTVSS",ELISA binding hIL-12RB2/control,[3],1.14 ratio to control
same,ELISA binding mIL-12RB2/control,[4],40.9 ratio to control
"anti-IL-12Rβ2 VHH clone 2CAM9 (VHH, Tested as periplasmic extract; CDR3 group 19) VHH: QVQLQESGGGLVQAGMSLRLSCAASGLTFSWYRMGWFRQAPGKEREFVAGWYGVLTQYRDSVKGRFTISRDDAKNTVYLQMNSLKPEDTAVYYCAASLGGNYRSYEYDYWGQGTQVTVSS",ELISA binding hIL-12RB2/control,[3],1.09 ratio to control
same,ELISA binding mIL-12RB2/control,[4],8.27 ratio to control
"anti-IL-12Rβ2 VHH clone 2CAM12 (VHH, Tested as periplasmic extract; CDR3 group 19) VHH: QVQLQESGGGLVQAGGSLRLSCAASGRTFSWYRMGWFRQAPGKEREFVAGWYGVLTQYRDSVKGRFTISRDDAKNTVYLQMNSLKPEDTAVYYCAASLGGNYRSYEYDYWGQGTQVTVSS",ELISA binding hIL-12RB2/control,[3],0.9 ratio to control
same,ELISA binding mIL-12RB2/control,[4],3.38 ratio to control
